Blank lines part the entries; values can stand above or below the binder they belong to.
Assays:
Test in all cases: holdup assay
Parameters in all cases: key: below the threshold = too weak to quantify, mostly under pKd 3.1 to 4
SNX27, Q96L92 = biological target: SNX27, Q96L92
MPP7, Q5T2T1 = biological target: T1, MPP7, Q5T2T1
T1 sequence (Q5T2T1 134-230, limits assumed, looked up): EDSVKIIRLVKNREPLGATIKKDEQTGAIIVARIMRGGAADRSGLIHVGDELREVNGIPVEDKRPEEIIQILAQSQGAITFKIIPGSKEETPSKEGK

HTRA2, O43464 = biological target: HTRA2, O43464
MPP6, Q9NZW5 = biological target: T2, MPP6, Q9NZW5
T2 sequence (Q9NZW5 125-219, limits assumed, looked up): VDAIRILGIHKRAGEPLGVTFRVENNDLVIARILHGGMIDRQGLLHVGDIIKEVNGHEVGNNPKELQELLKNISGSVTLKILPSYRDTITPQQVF

DLG3_1, Q92796 = biological target: T3, DLG3_1, Q92796
T3 sequence (Q92796 125-227, limits assumed, looked up): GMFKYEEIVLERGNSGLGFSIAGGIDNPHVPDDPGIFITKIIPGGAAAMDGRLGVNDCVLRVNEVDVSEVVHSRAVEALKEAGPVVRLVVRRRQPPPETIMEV

APBA3_1, O96018 = biological target: T4, APBA3_1, O96018
T4 sequence (O96018 389-490, limits assumed, looked up): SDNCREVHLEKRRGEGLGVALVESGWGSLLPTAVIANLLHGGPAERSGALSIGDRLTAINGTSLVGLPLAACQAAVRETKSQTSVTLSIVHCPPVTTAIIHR

MAGI2_6, Q86UL8 = biological target: MAGI2_6, Q86UL8
SNTA1, Q13424 = biological target: T5, SNTA1, Q13424
T5 sequence (Q13424 82-180, limits assumed, looked up): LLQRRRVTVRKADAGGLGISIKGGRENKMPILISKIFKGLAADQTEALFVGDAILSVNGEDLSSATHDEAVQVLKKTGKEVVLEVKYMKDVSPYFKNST

AHNAK1, Q09666 = biological target: AHNAK1, Q09666
ARHGEF11, O15085 = biological target: T6, ARHGEF11, O15085
T6 sequence (O15085 42-136, limits assumed, looked up): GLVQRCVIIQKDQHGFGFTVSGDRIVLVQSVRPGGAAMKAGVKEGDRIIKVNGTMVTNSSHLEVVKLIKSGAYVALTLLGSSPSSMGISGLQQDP

LRRC7, Q96NW7 = biological target: T7, LRRC7, Q96NW7
T7 sequence (Q96NW7 1440-1537, limits assumed, looked up): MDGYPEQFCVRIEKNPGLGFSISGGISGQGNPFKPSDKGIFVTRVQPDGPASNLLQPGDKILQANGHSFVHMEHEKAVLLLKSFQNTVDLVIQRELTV

FRMPD2_3, Q68DX3 = biological target: FRMPD2_3, Q68DX3
FRMPD2_1, Q68DX3 = biological target: FRMPD2_1, Q68DX3
RAPGEF6, Q8TEU7 = biological target: T8, RAPGEF6, Q8TEU7
T8 sequence (Q8TEU7 525-625, limits assumed, looked up): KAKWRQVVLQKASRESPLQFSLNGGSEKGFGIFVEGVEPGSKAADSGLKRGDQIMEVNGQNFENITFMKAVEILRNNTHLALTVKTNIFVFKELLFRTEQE

IL16_4, Q14005 = biological target: IL16_4, Q14005
PDZD2_2, O15018 = biological target: T9, PDZD2_2, O15018
T9 sequence (O15018 329-429, limits assumed, looked up): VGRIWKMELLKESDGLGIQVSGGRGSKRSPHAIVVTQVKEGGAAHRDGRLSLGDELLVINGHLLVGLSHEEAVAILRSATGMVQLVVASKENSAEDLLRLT

DLG5_1, Q8TDM6 = biological target: DLG5_1, Q8TDM6
DLG2_3, Q15700 = biological target: DLG2_3, Q15700
PTPN13_1, Q12923 = biological target: T10, PTPN13_1, Q12923
T10 sequence (Q12923 1088-1188, limits assumed, looked up): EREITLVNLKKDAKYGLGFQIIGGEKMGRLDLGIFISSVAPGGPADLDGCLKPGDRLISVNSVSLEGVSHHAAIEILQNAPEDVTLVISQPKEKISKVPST

GRIP2_6, Q9C0E4 = biological target: GRIP2_6, Q9C0E4
DVL3, Q92997 = biological target: T11, DVL3, Q92997
T11 sequence (Q92997 244-331, limits assumed, looked up): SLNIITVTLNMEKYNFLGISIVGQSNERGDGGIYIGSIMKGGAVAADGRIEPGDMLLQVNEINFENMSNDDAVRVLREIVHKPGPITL

APBA2_1, Q99767 = biological target: T12, APBA2_1, Q99767
T12 sequence (Q99767 563-664, limits assumed, looked up): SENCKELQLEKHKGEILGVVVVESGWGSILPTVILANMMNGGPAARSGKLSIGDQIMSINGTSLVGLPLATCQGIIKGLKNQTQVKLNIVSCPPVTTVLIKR

SNTB1, Q13884 = biological target: T13, SNTB1, Q13884
T13 sequence (Q13884 107-205, limits assumed, looked up): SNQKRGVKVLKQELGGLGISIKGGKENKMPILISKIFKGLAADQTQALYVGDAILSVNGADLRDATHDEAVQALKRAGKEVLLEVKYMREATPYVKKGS

LAP2, Q96RT1 = biological target: LAP2, Q96RT1
PARD3_3, Q8TEW0 = biological target: PARD3_3, Q8TEW0
[1] = plain residues with an end cap or a label only (N-terminal biotin on a linker: ttds)
[2] = plain residues with an end cap or a label only (N-terminal biotin on a linker: ahx)

Chain of LAP2, Q96RT1 (Q96RT1 other isoform, or with tags, fused parts or gaps): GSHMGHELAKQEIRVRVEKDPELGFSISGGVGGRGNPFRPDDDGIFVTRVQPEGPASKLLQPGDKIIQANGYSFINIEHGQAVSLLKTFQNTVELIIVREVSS
Chain of FRMPD2_3, Q68DX3 (Q68DX3 1073-1166): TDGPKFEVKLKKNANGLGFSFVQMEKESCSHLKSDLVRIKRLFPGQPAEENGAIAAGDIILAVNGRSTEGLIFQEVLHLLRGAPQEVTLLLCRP
Chain of PARD3_3, Q8TEW0 (Q8TEW0 582-685): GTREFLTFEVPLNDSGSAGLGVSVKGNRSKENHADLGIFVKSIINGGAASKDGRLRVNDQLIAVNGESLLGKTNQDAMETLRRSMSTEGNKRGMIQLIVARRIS
Chain of HTRA2, O43464 (O43464 355-458): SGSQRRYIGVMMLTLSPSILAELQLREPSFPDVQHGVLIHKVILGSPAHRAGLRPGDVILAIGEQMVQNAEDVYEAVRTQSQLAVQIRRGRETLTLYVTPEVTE
Chain of DLG5_1, Q8TDM6 (Q8TDM6 617-713): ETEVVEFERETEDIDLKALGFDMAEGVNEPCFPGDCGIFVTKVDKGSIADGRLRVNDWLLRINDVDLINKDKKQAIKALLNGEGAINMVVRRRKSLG
Chain of AHNAK1, Q09666 (Q09666 4-100): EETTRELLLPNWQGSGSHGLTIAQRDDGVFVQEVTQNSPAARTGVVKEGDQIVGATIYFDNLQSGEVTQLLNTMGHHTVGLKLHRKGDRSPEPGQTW
Chain of IL16_4, Q14005 (Q14005 1229-1329): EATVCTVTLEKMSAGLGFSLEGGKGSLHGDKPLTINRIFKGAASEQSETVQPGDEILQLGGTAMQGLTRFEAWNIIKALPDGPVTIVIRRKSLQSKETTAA
Chain of GRIP2_6, Q9C0E4 (Q9C0E4 648-740): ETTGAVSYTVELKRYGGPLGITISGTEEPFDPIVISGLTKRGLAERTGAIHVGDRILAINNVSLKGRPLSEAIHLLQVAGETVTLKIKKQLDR
Chain of MAGI2_6, Q86UL8 (Q86UL8 1141-1229): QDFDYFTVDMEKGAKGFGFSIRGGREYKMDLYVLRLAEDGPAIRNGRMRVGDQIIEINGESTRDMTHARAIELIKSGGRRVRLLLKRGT
Chain of FRMPD2_1, Q68DX3 (Q68DX3 770-861): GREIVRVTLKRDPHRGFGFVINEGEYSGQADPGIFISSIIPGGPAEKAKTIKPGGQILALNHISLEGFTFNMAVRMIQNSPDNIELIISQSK

pKd (SNX27, Q96L92; [1]): 5.49
pKd (MPP7, Q5T2T1; [1]): below the threshold
pKd (HTRA2, O43464; [1]): below the threshold
pKd (MPP6, Q9NZW5; [1]): below the threshold
pKd (DLG3_1, Q92796; [1]): below the threshold
pKd (APBA3_1, O96018; [1]): below the threshold
pKd (MAGI2_6, Q86UL8; [1]): 3.79
pKd (SNTA1, Q13424; [1]): 4.07
pKd (AHNAK1, Q09666; [1]): below the threshold
pKd (ARHGEF11, O15085; [1]): 4.28
pKd (LRRC7, Q96NW7; [1]): below the threshold
pKd (FRMPD2_3, Q68DX3; [1]): below the threshold
pKd (FRMPD2_1, Q68DX3; [1]): below the threshold
pKd (RAPGEF6, Q8TEU7; [1]): below the threshold
pKd (IL16_4, Q14005; [1]): below the threshold
pKd (PDZD2_2, O15018; [1]): 3.73
pKd (DLG5_1, Q8TDM6; [1]): below the threshold
pKd (DLG2_3, Q15700; [1]): below the threshold
pKd (PTPN13_1, Q12923; [1]): below the threshold
pKd (GRIP2_6, Q9C0E4; [1]): below the threshold
pKd (DVL3, Q92997; [1]): below the threshold
pKd (APBA2_1, Q99767; [1]): below the threshold
pKd (SNTB1, Q13884; [1]): 4.53
pKd (LAP2, Q96RT1; [1]): 3.66
pKd (PARD3_3, Q8TEW0; [1]): 3.74
Binder: DKDPHSETAL [TMIGD1, Q6UXZ0]

pKd (SNX27, Q96L92; [2]): below the threshold
pKd (MPP7, Q5T2T1; [2]): 4.1
pKd (HTRA2, O43464; [2]): below the threshold
pKd (MPP6, Q9NZW5; [2]): 3.83
pKd (DLG3_1, Q92796; [2]): below the threshold
pKd (APBA3_1, O96018; [2]): below the threshold
pKd (MAGI2_6, Q86UL8; [2]): below the threshold
pKd (SNTA1, Q13424; [2]): below the threshold
pKd (AHNAK1, Q09666; [2]): below the threshold
pKd (ARHGEF11, O15085; [2]): 3.98
pKd (LRRC7, Q96NW7; [2]): below the threshold
pKd (FRMPD2_3, Q68DX3; [2]): below the threshold
pKd (FRMPD2_1, Q68DX3; [2]): below the threshold
pKd (RAPGEF6, Q8TEU7; [2]): below the threshold
pKd (IL16_4, Q14005; [2]): below the threshold
pKd (PDZD2_2, O15018; [2]): below the threshold
pKd (DLG5_1, Q8TDM6; [2]): below the threshold
pKd (DLG2_3, Q15700; [2]): below the threshold
pKd (PTPN13_1, Q12923; [2]): below the threshold
pKd (GRIP2_6, Q9C0E4; [2]): 3.6
pKd (DVL3, Q92997; [2]): below the threshold
pKd (APBA2_1, Q99767; [2]): below the threshold
pKd (SNTB1, Q13884; [2]): below the threshold
pKd (LAP2, Q96RT1; [2]): below the threshold
pKd (PARD3_3, Q8TEW0; [2]): 4.58
Binder: SDSSGQEYSL [KCTD3, Q9Y597]

pKd (SNX27, Q96L92; [2]): below the threshold
pKd (MPP7, Q5T2T1; [2]): below the threshold
pKd (HTRA2, O43464; [2]): below the threshold
pKd (MPP6, Q9NZW5; [2]): below the threshold
pKd (DLG3_1, Q92796; [2]): below the threshold
pKd (APBA3_1, O96018; [2]): below the threshold
pKd (MAGI2_6, Q86UL8; [2]): below the threshold
pKd (SNTA1, Q13424; [2]): below the threshold
pKd (AHNAK1, Q09666; [2]): below the threshold
pKd (ARHGEF11, O15085; [2]): below the threshold
pKd (LRRC7, Q96NW7; [2]): below the threshold
pKd (FRMPD2_3, Q68DX3; [2]): below the threshold
pKd (FRMPD2_1, Q68DX3; [2]): below the threshold
pKd (RAPGEF6, Q8TEU7; [2]): below the threshold
pKd (IL16_4, Q14005; [2]): below the threshold
pKd (PDZD2_2, O15018; [2]): below the threshold
pKd (DLG5_1, Q8TDM6; [2]): below the threshold
pKd (DLG2_3, Q15700; [2]): below the threshold
pKd (PTPN13_1, Q12923; [2]): below the threshold
pKd (GRIP2_6, Q9C0E4; [2]): below the threshold
pKd (DVL3, Q92997; [2]): below the threshold
pKd (APBA2_1, Q99767; [2]): below the threshold
pKd (SNTB1, Q13884; [2]): below the threshold
pKd (LAP2, Q96RT1; [2]): below the threshold
pKd (PARD3_3, Q8TEW0; [2]): below the threshold
Binder: ESLLLGPSNF [SHROOM4, Q9ULL8]

pKd (SNX27, Q96L92; [1]): 5.71
pKd (MPP7, Q5T2T1; [1]): below the threshold
pKd (HTRA2, O43464; [1]): below the threshold
pKd (MPP6, Q9NZW5; [1]): below the threshold
pKd (DLG3_1, Q92796; [1]): 3.49
pKd (APBA3_1, O96018; [1]): below the threshold
pKd (MAGI2_6, Q86UL8; [1]): 3.68
pKd (SNTA1, Q13424; [1]): 4.14
pKd (AHNAK1, Q09666; [1]): below the threshold
pKd (ARHGEF11, O15085; [1]): 3.97
pKd (LRRC7, Q96NW7; [1]): below the threshold
pKd (FRMPD2_3, Q68DX3; [1]): below the threshold
pKd (FRMPD2_1, Q68DX3; [1]): below the threshold
pKd (RAPGEF6, Q8TEU7; [1]): below the threshold
pKd (IL16_4, Q14005; [1]): 3.53
pKd (PDZD2_2, O15018; [1]): 4.06
pKd (DLG5_1, Q8TDM6; [1]): below the threshold
pKd (DLG2_3, Q15700; [1]): below the threshold
pKd (PTPN13_1, Q12923; [1]): below the threshold
pKd (GRIP2_6, Q9C0E4; [1]): below the threshold
pKd (DVL3, Q92997; [1]): below the threshold
pKd (APBA2_1, Q99767; [1]): below the threshold
pKd (SNTB1, Q13884; [1]): 4.46
pKd (LAP2, Q96RT1; [1]): below the threshold
pKd (PARD3_3, Q8TEW0; [1]): 3.62
Binder: KKYVDAETSL [SLC4A7, Q9Y6M7]
